# Results taken from patent publication US20190241659A1 (AstraZeneca / MedImmune, published 2019).
# Legend:
# [1] = biological target: T1, human CD40 on the cell surface (CD40 transfected HEK293 cells, Ramos human B cells, other CD40-bearing cells) (human, UniProt P25942 21-277); experiment: flow cytometry, Alexa 647 conjugate on CD40 transfected 293 cells
# T1 construct: the transfected construct is not described further
# [2] = biological target: T2, CD40-Fc protein (Sino-Biological), biotinylated (Homo sapiens (Human), UniProt P25942 21-193, biotinylated in the lab (sites not given) when used for capture); experiment: Octet (BLI); G4P-PDL1 held on captured hPDL1-His, then CD40-Fc 100nM
# T2 construct: Bought; also called CD40-biotin; not shown: Fc of the purchased CD40-Fc
# T2 sequence (P25942 21-193): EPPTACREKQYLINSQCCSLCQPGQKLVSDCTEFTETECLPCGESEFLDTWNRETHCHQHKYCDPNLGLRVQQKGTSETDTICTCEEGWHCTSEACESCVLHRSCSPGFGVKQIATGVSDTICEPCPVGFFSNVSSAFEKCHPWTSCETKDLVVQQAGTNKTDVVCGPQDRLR
# T1 sequence (P25942 21-277 limits assumed): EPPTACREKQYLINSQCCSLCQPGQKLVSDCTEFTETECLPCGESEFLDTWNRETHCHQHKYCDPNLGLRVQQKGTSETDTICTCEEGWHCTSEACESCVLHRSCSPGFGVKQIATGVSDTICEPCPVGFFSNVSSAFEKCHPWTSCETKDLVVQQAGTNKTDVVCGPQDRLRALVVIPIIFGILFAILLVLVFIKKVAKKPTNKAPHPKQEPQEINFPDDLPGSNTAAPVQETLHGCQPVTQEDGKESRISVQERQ
binder,measurement,setting,value
"anti-PDL1 (MEDI4736) in human IgG4 isotype (antibody, V domains shown, Human IgG4 (228P) format of MEDI4736; also called MEDI4736 IgG4; anti-PD-L1 (MED4736)) VH: EVQLVESGGGLVQPGGSLRLSCAASGFTFSRYWMSWVRQAPGKGLEWVANIKQDGSEKYYVDSVKGRFTISRDNAKNSLYLQMNSLRAEDTAVYYCAREGGWFGELAFDYWGQGTLVTVSS VL: EIVLTQSPGTLSLSPGERATLSCRASQRVSSSYLAWYQQKPGQAPRLLIYDASSRATGIPDRFSGSGSGTDFTLTISRLEPEDFAVYYCQQYGSLPWTFGQGTKVEIKR",binding result,[1],no binding (tested: about 4x10^4 pM)
same,binding result,[2],no binding (tested: 100 nM CD40-Fc)
